# According to patent publication US20240084023A1 (NGM BIOPHARMACEUTICALS, published 2024):
# Changes are numbered by the printed parent chain.
# T1: GCGR extracellular domain alanine mutant W106A (human, UniProt P47871 26-136, limits assumed)
# T1 construct: expressed in 293XP cells
# T1 chain: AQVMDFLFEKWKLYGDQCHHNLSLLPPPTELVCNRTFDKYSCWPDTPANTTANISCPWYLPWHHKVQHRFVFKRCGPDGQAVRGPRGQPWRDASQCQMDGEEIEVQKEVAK
# T2: GCGR extracellular domain alanine mutant W83A (human, UniProt P47871 26-136, limits assumed)
# T2 construct: expressed in 293XP cells
# T2 chain: T1 chain with W58A, A81W
# T3: GCGR extracellular domain alanine mutant W36A (human, UniProt P47871 26-136, limits assumed)
# T3 construct: expressed in 293XP cells
# T3 chain: T1 chain with W11A, A81W
# T4: GCGR extracellular domain alanine mutant Q113A (human, UniProt P47871 26-136, limits assumed)
# T4 construct: expressed in 293XP cells
# T4 chain: T1 chain with A81W, Q88A
# T5: GCGR extracellular domain alanine mutant H45A (human, UniProt P47871 26-136, limits assumed)
# T5 construct: expressed in 293XP cells
# T5 chain: T1 chain with H20A, A81W
# T6: GCGR extracellular domain alanine mutant L50A (human, UniProt P47871 26-136, limits assumed)
# T6 construct: expressed in 293XP cells
# T6 chain: T1 chain with L25A, A81W
# T7: GCGR extracellular domain alanine mutant T75A (human, UniProt P47871 26-136, limits assumed)
# T7 construct: expressed in 293XP cells
# T7 chain: T1 chain with T50A, A81W
# T8: GCGR extracellular domain alanine mutant W87A (human, UniProt P47871 26-136, limits assumed)
# T8 construct: expressed in 293XP cells
# T8 chain: T1 chain with W62A, A81W
# T9: GCGR extracellular domain alanine mutant L38A (human, UniProt P47871 26-136, limits assumed)
# T9 construct: expressed in 293XP cells
# T9 chain: T1 chain with L13A, A81W
# T10: GCGR extracellular domain alanine mutant L85A (human, UniProt P47871 26-136, limits assumed)
# T10 construct: expressed in 293XP cells
# T10 chain: T1 chain with L60A, A81W
# T11: GCGR extracellular domain alanine mutant F62A (human, UniProt P47871 26-136, limits assumed)
# T11 construct: expressed in 293XP cells
# T11 chain: T1 chain with F37A, A81W
# T12: GCGR extracellular domain alanine mutant F33A (human, UniProt P47871 26-136, limits assumed)
# T12 construct: expressed in 293XP cells
# T12 chain: T1 chain with F8A, A81W
# T13: GCGR extracellular domain alanine mutant K90A (human, UniProt P47871 26-136, limits assumed)
# T13 construct: expressed in 293XP cells
# T13 chain: T1 chain with K65A, A81W
# B1: anti-GCGR antibody Hz6B5 (antibody, V domains shown)
# VH: QVQLVQSGAEVKKPGSSVKVSCKASGFTFTNHWLGWVRQAPGQGLEWIGDIYPGGYYINYNEKFKGRVTITADESTSTAYMELSSLRSEDTAVYYCARHTNYGSDYWGQGTTVTVSS
# VL: DVVMTQSPLSLPVTLGQPASISCRSSQSIVDSYGNTFLEWYQQRPGQSPRLLIYKVSNRLSGVPDRFSGSGSGTDFTLKISRVEAEDVGVYYCFQGSHVPWTFGQGTKLEIK
# notes: Humanized 6B5
# Key:
# Assay in all cases: flow cytometry on transfected 293XP cells
# [1] = target: T1, GCGR extracellular domain alanine …
# Description: (§1) To assist in gathering information on the GCGR epitope that the 6B5 binning group bound to, “alanine scanning mutagenesis” was undertaken. These alanine scanning mutagenesis platform is a technique used for mapping both linear and conformational antigen epitopes by evaluating the effects of point mutations across a target protein. Single residues in a target protein are replaced by alanine one at a time to construct a mutant library. Each variant is assayed for its ability to bind to an antibody of interest. […] Amino acids across the extracellular domain of GCGR were mutated to alanine and the anti-GCGR antibody Hz6B5 was tested for binding to the alanine mutants.
# (§2) The wild-type GCGR extracellular domain and the alanine mutants were each transfected into 293XP cells and incubated for 24 hours. Antibody Hz6B5 was incubated with the transfected cells for 30 minutes at 4° C. After washing with PBS/1% BSA/0.1% azide, the cells were incubated with a labeled anti-mouse Fc antibody (Jackson Immunoresearch) for 30 minutes at 4° C. After washing with PBS/1% BSA/0.1% azide, the cells were analyzed using a flow cytometer BD (FACSCalibur instrument) and cytometric analytical software (FlowJo). A serum sample from a mouse immunized with human GCGR was used as positive control to confirm expression of the alanine mutants.
# [2] = target: T2, GCGR extracellular domain alanine …
# Description: as §1, §2
# [3] = target: T3, GCGR extracellular domain alanine …
# Description: as §1, §2
# [4] = target: T4, GCGR extracellular domain alanine …
# Description: as §1, §2
# [5] = target: T5, GCGR extracellular domain alanine …
# Description: as §1, §2
# [6] = target: T6, GCGR extracellular domain alanine …
# Description: as §1, §2
# [7] = target: T7, GCGR extracellular domain alanine …
# Description: as §1, §2
# [8] = target: T8, GCGR extracellular domain alanine …
# Description: as §1, §2
# [9] = target: T9, GCGR extracellular domain alanine …
# Description: as §1, §2
# [10] = target: T10, GCGR extracellular domain alanine …
# Description: as §1, §2
# [11] = target: T11, GCGR extracellular domain alanine …
# Description: as §1, §2
# [12] = target: T12, GCGR extracellular domain alanine …
# Description: as §1, §2
# [13] = target: T13, GCGR extracellular domain alanine …
# Description: as §1, §2
binder,measurement,setting,value
B1,% positive cells,[1],60.8%
same,% positive cells,[2],72.6%
same,% positive cells,[3],70.9%
same,% positive cells,[4],83.4%
same,% positive cells,[5],81.3%
same,% positive cells,[6],86.6%
same,% positive cells,[7],84.9%
same,% positive cells,[8],74.7%
same,% positive cells,[9],3.3%
same,% positive cells,[10],11.7%
same,% positive cells,[11],62.8%
same,% positive cells,[12],71.8%
same,% positive cells,[13],83%
